Source: the supplement of paper PMC12042874
± gives the uncertainty stated by the source.

Assay: amyloid nucleation score (Sup35N fusion, yeast selection) (log enrichment); library NNK3; higher = more nucleation; inactive = no reads after selection
Procedure, shortened: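 In psi-negative yeast, Sup35N fusions carrying peptides of 20 random codons were induced with 100 μM copper sulfate for 24 hours. The cells then grew 7 days at 30°C on medium lacking adenine and uracil, and plasmid inserts from input and output were Illumina-sequenced, excluding sequences with under 100 input reads. Nucleation score is the DiMSum log enrichment of output over input reads, centred on the mode score of non-aggregating sequences.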
In the case of VDSDHIIHSTVLISVLGELD, the amyloid nucleation score is reported as “inactive”. For VDTYHTFVVVLH, the amyloid nucleation score was “inactive”. With VDVFK the amyloid nucleation score was “inactive”. With VDVVLGMSIG the amyloid nucleation score was “inactive”. With VEDGAGGP the amyloid nucleation score was “inactive”. In the case of VEDLMF, the amyloid nucleation score is reported as “inactive”. With VEDWATILSYY the amyloid nucleation score was “inactive”. With VEFIEFMYDPSYYVSNQNST the amyloid nucleation score was “inactive”. For VEGRCPLNH, the amyloid nucleation score was “inactive”. In the case of VEHSFYSLVCHRTDLF, the amyloid nucleation score is reported as “inactive”. In the case of VEIGCANSRWDLLGVVCCLG, the amyloid nucleation score is reported as 1.27 ± 0.17. For VELSNVFWGERYIKGLLTDL, the amyloid nucleation score was “inactive”. For VENVDYFCDFGTISIL, the amyloid nucleation score was 1.66 ± 0.087. With VFCLVYKKCLKSYCQYMVIG the amyloid nucleation score was “inactive”. For VFCSSDTAFPEGTTVSSRSR, the amyloid nucleation score was “inactive”. With VFEVEPNLGIGYSAKACNVG the amyloid nucleation score was “inactive”. In the case of VFFMNYGHVIVHFEKFFGGN, the amyloid nucleation score is reported as 2.6 ± 0.082. For VFFRYWV, the amyloid nucleation score was 1.62 ± 0.073. In the case of VFGPLYSSYDIRQ, the amyloid nucleation score is reported as “inactive”. In the case of VFGPRRPMVNCSN, the amyloid nucleation score is reported as “inactive”. With VFHRQERMLTPCT the amyloid nucleation score was “inactive”. With VFKMACEWSALWWNLLHTYS the amyloid nucleation score was “inactive”. In the case of VFLKSNSAVQLSFRFNYHNL, the amyloid nucleation score is reported as “inactive”. For VFLLCSLILWRAQLQLVCSL, the amyloid nucleation score was “inactive”. In the case of VFNFPQSDGNRSYMDFMAIQ, the amyloid nucleation score is reported as “inactive”. For VFNIRHSSDPRLYLTYVMSS, the amyloid nucleation score was 1.19 ± 0.12. With VFNRSCINFKRYGSA the amyloid nucleation score was “inactive”. With VFNYVIGPGDKFAD the amyloid nucleation score was “inactive”. In the case of VFPLSAY, the amyloid nucleation score is reported as “inactive”. For VFPYFELCVFLPSYFREAET, the amyloid nucleation score was “inactive”. With VFSEWYVFHGQEVSTIHCAH the amyloid nucleation score was “inactive”. In the case of VFSGGVRETLNSS, the amyloid nucleation score is reported as “inactive”. In the case of VFSGIL, the amyloid nucleation score is reported as “inactive”. With VFSMWFSGLTTSIYRSLED the amyloid nucleation score was “inactive”. Substance VFSNGSRDAWSFFNQKSNRF has an amyloid nucleation score of 0.193 ± 0.21. In the case of VFTDLCTYKTCTYVIPCTAE, the amyloid nucleation score is reported as “inactive”. VFVSSKTISLSGSLMISPNL showed an amyloid nucleation score of 1.69 ± 0.086. For VFYLCNFWGCWTCSIAVIVS, the amyloid nucleation score was 0.576 ± 0.17. For VGDLLCPIASLGSRRNLWCR, the amyloid nucleation score was “inactive”. With VGESDKLHFAH the amyloid nucleation score was “inactive”. For VGFLWMQRVNEVDK, the amyloid nucleation score was “inactive”. For VGGIRLRIE, the amyloid nucleation score was “inactive”. With VGHFISYCNRIFSAKAIIVF the amyloid nucleation score was “inactive”. With VGKLLVGTWWHGSYRSMSKR the amyloid nucleation score was “inactive”. For VGLWYSDIISVFCLNLMRLV, the amyloid nucleation score was “inactive”. VGNYINVANMYSWGVIIRND showed an amyloid nucleation score of 2.39 ± 0.072. For VGRHAYRC, the amyloid nucleation score was “inactive”. For VGRSEIYPACPLHSFKMDKF, the amyloid nucleation score was “inactive”. In the case of VGSNSDSVCCSPVVAGFQWT, the amyloid nucleation score is reported as 1.07 ± 0.1. For VGYVFFGFPVLKYARQESLS, the amyloid nucleation score was “inactive”. In the case of VHFKRVEKG, the amyloid nucleation score is reported as “inactive”. With VHGPKNCWKCDFKER the amyloid nucleation score was “inactive”. With VHGVRV the amyloid nucleation score was “inactive”. In the case of VHLGSFDFIFLNMSSTRSLG, the amyloid nucleation score is reported as “inactive”. In the case of VHMNRSGSAALEFGMLWEYI, the amyloid nucleation score is reported as “inactive”. In the case of VHRWGYQCSWVEQ, the amyloid nucleation score is reported as “inactive”. Substance VHSPWVNNLYQCWTYYFLLL has an amyloid nucleation score of 0.162 ± 0.88. In the case of VHTMEEVA, the amyloid nucleation score is reported as “inactive”. With VHYKVKGSLPFCCGYFNSLW the amyloid nucleation score was 1.67 ± 0.079. In the case of VHYWCGTQVVA, the amyloid nucleation score is reported as “inactive”. With VIALDVNL the amyloid nucleation score was “inactive”. In the case of VICKAPGRPGHLCCKCIAVH, the amyloid nucleation score is reported as “inactive”. With VIDFYVEPCLIYGAPPCWLH the amyloid nucleation score was 0.606 ± 0.38. For VIDWAYSPKPSDLTG, the amyloid nucleation score was 1.09 ± 0.16. For VIFDLVVGCGAVL, the amyloid nucleation score was “inactive”. In the case of VIGHMIGMDY, the amyloid nucleation score is reported as “inactive”. In the case of VIGTGN, the amyloid nucleation score is reported as “inactive”. In the case of VIILMVIVLYNRVSFETFSV, the amyloid nucleation score is reported as “inactive”. In the case of VIILTYVSMLTTAHINGWSG, the amyloid nucleation score is reported as 0.309 ± 0.29. In the case of VILLSLAY, the amyloid nucleation score is reported as “inactive”. For VILMFDSCGGFDW, the amyloid nucleation score was “inactive”. Substance VIMGDINQVAQPGDLRRFRC has an amyloid nucleation score of -0.423 ± 1.4. For VIRVLQPFDCGCILYSCLIS, the amyloid nucleation score was “inactive”. In the case of VISGVIVMWYAWMWAGYRVR, the amyloid nucleation score is reported as “inactive”. With VISIPHGSAIRTCIVITMSL the amyloid nucleation score was “inactive”. With VISVTRSYSHTYK the amyloid nucleation score was “inactive”. VITVIFVSYYCIPVWYW gave an amyloid nucleation score of 1.81 ± 0.099. In the case of VIVTVVSPTSMRNGDTRMQI, the amyloid nucleation score is reported as “inactive”. In the case of VIVYLFICNADLYFYKMSDF, the amyloid nucleation score is reported as 1.72 ± 0.12. In the case of VIWLGRRCTFLHKPTSRGQW, the amyloid nucleation score is reported as 0.021 ± 0.6. Substance VIYRSYLRIDSFIGRGGLII has an amyloid nucleation score of 0.567 ± 0.26. In the case of VKGMKCWCQVRSESGLVSNA, the amyloid nucleation score is reported as “inactive”.
